The source of these data is patent US20250215072A1 (published 2025).

Assay [1] has as its target T1, human LRRC33-proTGFβ1 complex (human, UniProt P01137 30-390; Q86YC3 19-650).
T1 construct: also called hLRRC33-proTGFβ1; hLRRC33
Nature of the assay: BLI (Octet). The protocol:
(§1) The affinity of anti-TGFβ1 antibodies was measured by Octet@ assay on human proTGFβ1 cells, while activity was measured by CAGA12 reporter cells testing human proTGFβ1 inhibition.

In assay [2] the target is T2, human GARP-proTGFβ1 complex (human, UniProt P01137 30-390; Q14392 20-627).
T2 construct: also called hGARP-proTGFβ1; hGARP
Nature of the assay: BLI (Octet). The protocol: as §1

T2 sequence (P01137 30-390, chain 1 of 2): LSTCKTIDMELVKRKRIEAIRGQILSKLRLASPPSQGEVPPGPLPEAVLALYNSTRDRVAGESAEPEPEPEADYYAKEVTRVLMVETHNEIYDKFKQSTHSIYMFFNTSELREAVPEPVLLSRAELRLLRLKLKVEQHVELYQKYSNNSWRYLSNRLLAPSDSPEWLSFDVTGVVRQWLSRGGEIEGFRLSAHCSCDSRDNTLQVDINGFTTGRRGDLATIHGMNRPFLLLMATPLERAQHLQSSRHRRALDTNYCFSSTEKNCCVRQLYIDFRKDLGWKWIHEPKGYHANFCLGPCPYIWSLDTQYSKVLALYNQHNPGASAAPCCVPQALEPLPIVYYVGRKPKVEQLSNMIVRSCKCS
T2 sequence (Q14392 20-627, chain 2 of 2): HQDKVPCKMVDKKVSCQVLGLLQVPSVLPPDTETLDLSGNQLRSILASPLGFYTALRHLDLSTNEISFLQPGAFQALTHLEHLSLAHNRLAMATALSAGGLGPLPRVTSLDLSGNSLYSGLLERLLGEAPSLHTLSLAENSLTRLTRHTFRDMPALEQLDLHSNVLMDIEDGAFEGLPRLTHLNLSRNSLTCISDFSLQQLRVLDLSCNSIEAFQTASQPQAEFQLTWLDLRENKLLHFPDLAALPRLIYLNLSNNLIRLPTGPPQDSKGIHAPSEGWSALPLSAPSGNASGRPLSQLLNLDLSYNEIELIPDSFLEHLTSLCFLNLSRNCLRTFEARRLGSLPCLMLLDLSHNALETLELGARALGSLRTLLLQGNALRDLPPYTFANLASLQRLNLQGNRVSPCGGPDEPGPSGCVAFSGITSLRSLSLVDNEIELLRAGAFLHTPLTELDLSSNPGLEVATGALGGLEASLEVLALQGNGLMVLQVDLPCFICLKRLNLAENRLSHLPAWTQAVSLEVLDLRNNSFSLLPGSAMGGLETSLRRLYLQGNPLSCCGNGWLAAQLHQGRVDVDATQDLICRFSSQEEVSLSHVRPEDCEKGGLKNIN
T1 sequence (P01137 30-390 limits assumed, chain 1 of 2): as the sequence (P01137 30-390, chain 1 of 2) above
T1 sequence (Q86YC3 other isoform, or with tags, fused parts or gaps limits assumed, chain 2 of 2): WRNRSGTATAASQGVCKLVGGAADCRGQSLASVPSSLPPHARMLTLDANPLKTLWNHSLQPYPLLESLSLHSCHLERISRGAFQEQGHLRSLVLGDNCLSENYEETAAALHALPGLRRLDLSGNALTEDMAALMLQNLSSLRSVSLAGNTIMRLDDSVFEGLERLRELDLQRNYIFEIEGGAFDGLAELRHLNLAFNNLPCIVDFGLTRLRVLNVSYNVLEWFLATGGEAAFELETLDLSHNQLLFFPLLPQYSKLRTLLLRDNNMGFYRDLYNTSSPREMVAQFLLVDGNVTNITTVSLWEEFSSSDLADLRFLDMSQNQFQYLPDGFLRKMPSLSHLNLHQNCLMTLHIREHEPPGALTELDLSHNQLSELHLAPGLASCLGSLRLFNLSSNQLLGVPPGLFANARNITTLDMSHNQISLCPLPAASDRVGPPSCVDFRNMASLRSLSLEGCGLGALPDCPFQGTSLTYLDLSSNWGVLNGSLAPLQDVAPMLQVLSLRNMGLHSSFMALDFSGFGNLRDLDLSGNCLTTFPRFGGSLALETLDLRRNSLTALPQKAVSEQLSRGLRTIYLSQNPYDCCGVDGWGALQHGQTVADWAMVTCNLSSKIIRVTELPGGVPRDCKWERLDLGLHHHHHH

B1: Ab16 (antibody, V domains shown)
VH: EVQLLESGGGLVQPGGSLRLSCAASGFTFSNYAMSWVRQAPGKGLEWVSAISGSGFTTYYADSVKGRFTISRDNSKNTLYLQMNSLRAEDTAVYYCARVSSGHWDFDYWGQGTLVTVSS
VL: DIQLTQSPSSLSASVGDRVTITCRASQSISSYLNWYQQKPGKAPKLLIYAASNLQSGVPSRFSGSGSGTDFTLTISSLQPEDFATYYCQQTYTVPLTFGGGTKVEIK
Take B1: the Kd in assay [1] was found to be 0.631 nM; in assay [2], 4.16 nM.

B2: Ab36 (antibody, V domains shown)
VH: EVQLLESGGGLVQPGGSLRLSCAASGFTFRNYAMSWVRQAPGKGLEWVSSISGSGGATYYADSVKGRFTISRDNSKNTLYLQMNSLRAEDTAVYYCARVSSGHWDLDYWGQGTLVTVSS
VL: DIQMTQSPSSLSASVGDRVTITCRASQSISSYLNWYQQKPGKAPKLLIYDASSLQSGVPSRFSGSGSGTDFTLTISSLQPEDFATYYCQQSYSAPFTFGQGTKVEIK
Take B2: the Kd in assay [1] is 1.42 nM; in assay [2], 12.8 nM.

B3: Ab17 (antibody, V domains shown)
VH: EVQLLESGGGVVQPGGSLRLSCAASGFTFSSFAMTWVRQAPGKGLEWVSAISGSGAATYFADSVKGRFTISRDNSKNTLYLQMNSLRAEDTAVYYCARVSSGHWDFDYWGQGTLVTVSS
VL: DIQLTQSPSSLSASVGDRVTITCRASQSISSYLNWYQQKPGKAPKLLIYAASNLQSGVPSRFSGSGSGTDFTLTISSLQPEDFATYYCQQTYTVPLTFGGGTKVEIK
For B3, the Kd in assay [1] was determined as 0.658 nM; in assay [2] it was 8.62 nM.

B4: Ab14 (antibody, V domains shown)
VH: EVQLLESGGGLVQPGGSLRLSCAASGFTFSAYAMTWVRQAPGKGLEWVSAISGTGGSTYYADSVKGRFTISRDNSKNTLYLQMNSLRAEDTAVYYCARVSSGHWDFDYWGQGTLVTVSS
VL: DIQMTQSPSSLSASVGDRVTITCRASQSISSYLNWYQQKPGKAPKLLIYAASSLQSGVPSRFSGSGSGTDFTLTISSLQPEDFATYYCQQVYDPPLTFGGGTKVEIK
Regarding B4, the Kd in assay [1] came to 1.34 nM; in assay [2], 10.5 nM.

B5: Ab15 (antibody, V domains shown)
VH: EVQLVESGGGVVQPGRSLRLSCAASGFTFSDYAMVWVRQAPGKGLEWVSAISGSGFTTYYADSVKGRFTISRDNSKNTLYLQMNSLRAEDTAVYYCARVSSGHWDFDYWGQGTLVTVSS
VL: DIQLTQSPSSLSASVGDRVTITCRASQSISSYLNWYQQKPGKAPKLLIYAASNLQSGVPSRFSGSGSGTDFTLTISSLQPEDFATYYCQQTYTVPLTFGGGTKVEIK
B5: the results for the Kd in assay [1] and in assay [2] were 0.702 nM and 7.01 nM, respectively.

B6: Ab18 (antibody, V domains shown)
VH: QVQLVESGGGVVQPGRSLRLSCAASGFTFSDYAMVWVRQAPGKGLEWVSAISGSGAATYFADSVKGRFTISRDNSKNTLYLQMNSLRAEDTAVYYCATVSSGHWDFDYWGQGTLVTVSS
VL: DIQLTQSPSSLSASVGDRVTITCRASQSISSYLNWYQQKPGKAPKLLIYAASNLQSGVPSRFSGSGSGTDFTLTISSLQPEDFATYYCQQTYTVPLTFGGGTKVEIK
With B6, the results for the dissociation constant (Kd) in assay [1] and in assay [2] were 1.02 nM and 11.5 nM, respectively.

B7: Ab27 (antibody, V domains shown)
VH: EVQLVESGGGLVQPGGSLRLSCAASGFTFSFYAMNWVRQAPGKGLEWVSYISPDASTIYYADSVKGRFTISRDNAKNSLYLQMNSLRAEDTAVYYCARGVLDYGDMLDPWGQGTLVTVSS
VL: DIQMTQSPSSLSASVGDRVTITCQASQDITNYLNWYQQKPGKAPKLLIYDASNLETGVPSRFSGSGSGTDFTFTISSLQPEDIATYYCQQADNHPPWTFGGGTKVEIK
Regarding B7, the results for the equilibrium dissociation constant (Kd) in assay [1] and in assay [2] were 0.299 nM and 0.424 nM, respectively.

B8: Ab28 (antibody, V domains shown)
VH: EVQLVESGGGLVQPGGSLRLSCAASGFTFSSFSMDWVRQAPGKGLEWVSYISPDASTIYYADSVKGRFTISRDNAKNSLYLQMNSLRAEDTAVYYCVRGVLDYGDMLDPWGQGTLVTVSS
VL: DIQMTQSPSSLSASVGDRVTITCQASQDITNYLNWYQQKPGKAPKLLIYDASNLETGVPSRFSGSGSGTDFTFTISSLQPEDIATYYCQQADNHPPWTFGGGTKVEIK
As to B8, the figures for the dissociation constant Kd in assay [1] and in assay [2] were 0.409 nM and 0.797 nM, respectively.
